Test [1] has as its target T1, human NOP (Homo sapiens, UniProt P41146). Kind of test: NOP receptor–G protein interaction BRET assay. The arrangement: expressed in transfected cells; host or cells: membranes of HEK293 cells stably coexpressing NOP-RLuc and Gβ1-RGFP. It counts as biochemical. The settings on record: N = 5 experiments in duplicate; for EC50: membranes from HEK293 cells coexpressing NOP-RLuc and Gβ1-RGFP, room temperature, mean (CL95%), read-out: NOP–G protein interaction pEC50 (CL95%) (converted). Here is the method:
A BRET interaction assay was used, as previously detailed in ref , to study the propensity of ligands to evoke interaction between the NOP receptor and to G protein. Membranes taken from HEK293 cells stably coexpressing the fusoproteins NOP-RLuc and Gβ1-RGFP were used. Such cells were grown in DMEM medium supplemented with 10% FBS, 2 mM L-glutamine, […] G418, […] hygromycin B, 100 IU/mL penicillin, and 100 IU/mL streptomycin in a humidified atmosphere with 5% CO2 at 37 °C. Cell membranes were thawed and resuspended in PBS supplemented with 0.01% BSA before the assay, and an amount of 3 μg of total protein was dispensed in each of the 96 wells together with 2 μM Prolume Purple Coelenterazine. All experiments were carried out at room temperature. Ligands were added, and averaged BRET ratios from 10 min measurements were computed. BRET ratios were computed as counts per second (CPS) obtained on a Victor Nivo (PerkinElmer) with 405 (10) nm and 510 (30) nm bandpass filters. Vehicles’ BRET ratios were derived from light passed through 510 divided by that passed through 405 filters. Vehicles BRET values were subtracted from all computations, and data sets were normalized as a fraction of N/OFQ maximal effects.
(§1) Concentration-response curves to agonists were analyzed by a four-parameter logistic nonlinear regression model: Effect = baseline + (E max – baseline)/(1 + 10^((logEC50–log[ligand])slope)). […] Experimental data were expressed as mean ± sem of at least 5 experiments. Potency values were expressed as the mean and CL95%. In vitro E max values were analyzed by one-way ANOVA, while in vivo latency data were evaluated by one-way ANOVA followed by Dunnett’s post hoc test. The proportion of mice losing the righting reflex was compared by Fisher’s exact test performed on raw data. GraphPad Prism 10.0 software was used for all of the analyses. The terminology employed is consistent with the International Union of Basic and Clinical Pharmacology (IUPHAR) recommendations. ,

Test [2] concerns the target T1, human NOP. The experiment in a line: Calcium mobilization assay, CHO cells with NOP receptor and chimeric G protein. The settings on record: for EC50: CHO cells coexpressing human NOP and Gαqi5, Fluo-4, 37 °C, mean (CL95%), N = 5 experiments in duplicate, read-out: Ca^2+ mobilization pEC50 (CL95%) (converted); for Ca^2+ mobilization E max ± sem: CHO cells coexpressing human NOP and Gαqi5, maximum change in percentage over baseline fluorescence, mean ± sem, N = 5 in duplicate. It is filed as cell-based. Also on record: expressed in transfected cells. How it is done: Chinese hamster ovary (CHO) cells stably coexpressing the human NOP, μ, or κ opioid receptors and the Gαqi5 protein or the human δ and the GαqG66Di5 protein were used in this assay. , Cells were cultured in DMEM/F-12 (1:1) medium supplemented with 10% FBS, 2 mM L-glutamine, […], 100 IU/mL penicillin, and 100 IU/mL streptomycin. Cells were maintained at 37 °C in a humidified atmosphere with 5% CO2 and were seeded at 50 000 cells/well into 96-well black, clear-bottom plates 24 h before test. Loading for 45 min with a solution consisting of HBSS supplemented with 2.5 mM probenecid, 3 μM Fluo-4 AM, and 0.01% pluronic acid ensures the calcium-sensitive dye (Fluo-4) reaches the needed concentration inside the cell, while the exchange of the solution with 100 μL/well of buffer consisting of HBSS with 20 mM HEPES, 2.5 mM probenecid, and 500 μM Brilliant Black allows for fluorescence background to decrease. Serial dilutions of ligands were prepared in HBSS buffer with 20 mM HEPES and 0.02% bovine serum albumin (BSA) to minimize the ligands’ stickiness to plasticware. The automated microplate reader FlexStation II (Molecular Devices, CA, US) was employed at 37 °C to detect changes in fluorescence intensity. The effects of all compounds were expressed as the maximum change in percentage over the baseline fluorescence measured in samples treated with vehicles.
as §1
On the technique in general: Calcium assays in cells follow changes in intracellular calcium, usually with a dye or a luminescent sensor.

Test [3] addresses NOP-RLuc (UniProt P41146). The settings on record: for E max, NOP–G protein interaction (BRET), normalised to N/OFQ-NH2 (E max = 1): scale: fraction of the maximal effect of N/OFQ-NH2.
In test [4] the target is human nociceptin/orphanin FQ (N/OFQ) peptide receptor (human) (UniProt P41146).
Chain of human nociceptin/orphanin FQ (N/OFQ) peptide receptor (human) (P41146 whole entry): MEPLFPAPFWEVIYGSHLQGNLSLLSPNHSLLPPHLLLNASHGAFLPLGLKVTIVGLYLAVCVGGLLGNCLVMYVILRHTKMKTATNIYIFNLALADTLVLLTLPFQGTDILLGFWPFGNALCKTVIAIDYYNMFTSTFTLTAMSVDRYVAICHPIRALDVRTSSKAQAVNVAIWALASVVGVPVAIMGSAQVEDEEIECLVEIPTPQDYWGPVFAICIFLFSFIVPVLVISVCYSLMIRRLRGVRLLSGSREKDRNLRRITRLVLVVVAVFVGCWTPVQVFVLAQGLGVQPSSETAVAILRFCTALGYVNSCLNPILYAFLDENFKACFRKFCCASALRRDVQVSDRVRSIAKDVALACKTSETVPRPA

From article PMC12621184, “Synthesis and Pharmacological Characterization of Nociceptin/Orphanin FQ Dimeric Ligands” (Journal of Medicinal Chemistry, 2025) come the findings set out here.

Bridge positions count the residues as written; N and C are the ends. Ends that are not written are not given here. Peptide text beside a SMILES is read from it. I, II: the chains in the order shown.

Chain of NOP-RLuc (P41146 whole entry): as above
T1 sequence (P41146 whole entry): as above

With `CC(C)C[C@H](NC(=O)[C@H](CCCCN)NC(=O)[C@H](CCCNC(=N)N)NC(=O)[C@H](C)NC(=O)[C@H](CO)NC(=O)[C@H](CCCCN)NC(=O)[C@H](CCCNC(=N)N)NC(=O)[C@H](CSSC[C@H](NC(=O)CNC(=O)[C@@H](NC(=O)[C@H](Cc1ccccc1)NC(=O)CNC(=O)CNC(=O)[C@@H](N)Cc1ccccc1)[C@@H](C)O)C(=O)N[C@@H](CCCNC(=N)N)C(=O)N[C@@H](CCCCN)C(=O)N[C@@H](CO)C(=O)N[C@@H](C)C(=O)N[C@@H](CCCNC(=N)N)C(=O)N[C@@H](CCCCN)C(=O)N[C@@H](CC(C)C)C(=O)N[C@@H](C)C(=O)N[C@@H](CC(N)=O)C(=O)N[C@@H](CCC(N)=O)C(N)=O)NC(=O)CNC(=O)[C@@H](NC(=O)[C@H](Cc1ccccc1)NC(=O)CNC(=O)CNC(=O)[C@@H](N)Cc1ccccc1)[C@@H](C)O)C(=O)N[C@@H](C)C(=O)N[C@@H](CC(N)=O)C(=O)N[C@@H](CCC(N)=O)C(N)=O` [1a, [[Cys^7]N/OFQ-NH2]2] (I: H-FGGFTGCRKSARKLANQ-NH2 / II: H-FGGFTGCRKSARKLANQ-NH2; disulfide I:7-II:7), the “NOP–G protein interaction E max ± sem” value in test [1] (effects normalized to N/OFQ-NH2 (E max = 1), mean ± sem) turned out to be 1.09 ± 0.09. For the same molecule, the EC50 in test [1] was 1.95 nM. Moreover, in test [2], the EC50 was 26.9 nM and the “Ca^2+ mobilization E max ± sem” value came to 293 ± 18 % over the baseline.

For `CC(C)C[C@H](NC(=O)[C@H](CCCCN)NC(=O)[C@H](CCCNC(=N)N)NC(=O)[C@H](C)NC(=O)[C@H](CO)NC(=O)[C@H](CCCCN)NC(=O)[C@H](CSSC[C@H](NC(=O)[C@H](C)NC(=O)CNC(=O)[C@@H](NC(=O)[C@H](Cc1ccccc1)NC(=O)CNC(=O)CNC(=O)[C@@H](N)Cc1ccccc1)[C@@H](C)O)C(=O)N[C@@H](CCCCN)C(=O)N[C@@H](CO)C(=O)N[C@@H](C)C(=O)N[C@@H](CCCNC(=N)N)C(=O)N[C@@H](CCCCN)C(=O)N[C@@H](CC(C)C)C(=O)N[C@@H](C)C(=O)N[C@@H](CC(N)=O)C(=O)N[C@@H](CCC(N)=O)C(N)=O)NC(=O)[C@H](C)NC(=O)CNC(=O)[C@@H](NC(=O)[C@H](Cc1ccccc1)NC(=O)CNC(=O)CNC(=O)[C@@H](N)Cc1ccccc1)[C@@H](C)O)C(=O)N[C@@H](C)C(=O)N[C@@H](CC(N)=O)C(=O)N[C@@H](CCC(N)=O)C(N)=O` [1b, [[Cys^8]N/OFQ-NH2]2] (I: H-FGGFTGACKSARKLANQ-NH2 / II: H-FGGFTGACKSARKLANQ-NH2; disulfide I:8-II:8), the EC50 in test [1] was 9.12 nM. Moreover, in test [2], the EC50 was 43.7 nM and the “Ca^2+ mobilization E max ± sem” value was 322 ± 20 % over the baseline.

In test [3], FGGFTGARKCARKLANQ-NH2 (also: homodimer: Cys10-Cys10 disulfide to second copy) [[[Cys^10]N/OFQ-NH2]2] showed a pEC50, NOP–G protein interaction (BRET, membranes of HEK293 cells with NOP-RLuc and Gβ1-RGFP) of 9.85 pEC50; an E max, NOP–G protein interaction (BRET), normalised to N/OFQ-NH2 (E max = 1) of 1.07. In test [4], the E max, Ca^2+ mobilization in CHO cells with human NOP and Gαqi5 (% over baseline) is 305; the pEC50, Ca^2+ mobilization in CHO cells with human NOP and Gαqi5 came out at 8.72 pEC50.

In the case of FGGFTGARCSARKLANQ-NH2 (also: homodimer: Cys9-Cys9 disulfide to second copy) [[[Cys^9]N/OFQ-NH2]2], in test [3], the pEC50, NOP–G protein interaction (BRET, membranes of HEK293 cells with NOP-RLuc and Gβ1-RGFP) worked out at 8.87 pEC50; the E max, NOP–G protein interaction (BRET), normalised to N/OFQ-NH2 (E max = 1) turned out to be 1.03. In test [4], this molecule gave an E max, Ca^2+ mobilization in CHO cells with human NOP and Gαqi5 (% over baseline) of 289; a pEC50, Ca^2+ mobilization in CHO cells with human NOP and Gαqi5 of 8.3 pEC50.

In test [3], FGGFTGARKSACKLANQ-NH2 (also: homodimer: Cys12-Cys12 disulfide to second copy) [[[Cys^12]N/OFQ-NH2]2] displayed a pEC50, NOP–G protein interaction (BRET, membranes of HEK293 cells with NOP-RLuc and Gβ1-RGFP) of 8.9 pEC50; an E max, NOP–G protein interaction (BRET), normalised to N/OFQ-NH2 (E max = 1) of 1.07. Also, in test [4], the E max, Ca^2+ mobilization in CHO cells with human NOP and Gαqi5 (% over baseline) was 346; the pEC50, Ca^2+ mobilization in CHO cells with human NOP and Gαqi5 was 8.52 pEC50.

In test [3], FGGFTGARKSARCLANQ-NH2 (also: homodimer: Cys13-Cys13 disulfide to second copy) [[[Cys^13]N/OFQ-NH2]2] returned a pEC50, NOP–G protein interaction (BRET, membranes of HEK293 cells with NOP-RLuc and Gβ1-RGFP) of 9.52 pEC50; an E max, NOP–G protein interaction (BRET), normalised to N/OFQ-NH2 (E max = 1) of 0.84. In test [4], the E max, Ca^2+ mobilization in CHO cells with human NOP and Gαqi5 (% over baseline) is 247; the pEC50, Ca^2+ mobilization in CHO cells with human NOP and Gαqi5 is 8.79 pEC50.

In test [3], FGGFTGACKSARKLANQ-NH2 (also: homodimer: Cys8-Cys8 disulfide to second copy) [[[Cys^8]N/OFQ-NH2]2] had a pEC50, NOP–G protein interaction (BRET, membranes of HEK293 cells with NOP-RLuc and Gβ1-RGFP) of 8.04 pEC50; an E max, NOP–G protein interaction (BRET), normalised to N/OFQ-NH2 (E max = 1) of 1.04. Also, in test [4], the E max, Ca^2+ mobilization in CHO cells with human NOP and Gαqi5 (% over baseline) is 322; the pEC50, Ca^2+ mobilization in CHO cells with human NOP and Gαqi5 amounted to 7.36 pEC50.

In test [3], FGGFTGARKSARKLACQ-NH2 (also: homodimer: Cys16-Cys16 disulfide to second copy) [[[Cys^16]N/OFQ-NH2]2] came in with a pEC50, NOP–G protein interaction (BRET, membranes of HEK293 cells with NOP-RLuc and Gβ1-RGFP) of 9.76 pEC50; an E max, NOP–G protein interaction (BRET), normalised to N/OFQ-NH2 (E max = 1) of 0.98. For the same molecule, in test [4], the E max, Ca^2+ mobilization in CHO cells with human NOP and Gαqi5 (% over baseline) is 312; the pEC50, Ca^2+ mobilization in CHO cells with human NOP and Gαqi5 came to 8.86 pEC50.

In test [3], FGGFTGCRKSARKLANQ-NH2 (also: homodimer: Cys7-Cys7 disulfide to second copy) [[[Cys^7]N/OFQ-NH2]2] registered a pEC50, NOP–G protein interaction (BRET, membranes of HEK293 cells with NOP-RLuc and Gβ1-RGFP) of 8.71 pEC50; an E max, NOP–G protein interaction (BRET), normalised to N/OFQ-NH2 (E max = 1) of 1.09. In test [4], this molecule displayed an E max, Ca^2+ mobilization in CHO cells with human NOP and Gαqi5 (% over baseline) of 293; a pEC50, Ca^2+ mobilization in CHO cells with human NOP and Gαqi5 of 7.57 pEC50.

Regarding FGGFTGARKSARKLCNQ-NH2 (also: homodimer: Cys15-Cys15 disulfide to second copy) [[[Cys^15]N/OFQ-NH2]2], in test [3], the pEC50, NOP–G protein interaction (BRET, membranes of HEK293 cells with NOP-RLuc and Gβ1-RGFP) came out at 9.71 pEC50; the E max, NOP–G protein interaction (BRET), normalised to N/OFQ-NH2 (E max = 1) turned out to be 0.95. In test [4], this molecule came in with an E max, Ca^2+ mobilization in CHO cells with human NOP and Gαqi5 (% over baseline) of 297; a pEC50, Ca^2+ mobilization in CHO cells with human NOP and Gαqi5 of 8.53 pEC50.
